For the test, the target named is GLP-1 receptor (on pancreatic islets of C57BL/6J mice) (mouse (islets from C57BL/6J mice)) (UniProt O35659).

Consider “glucagon like peptide-1 (GLP-1) (ligand)”, for which the Insulin Secretion ng/islet/hour (glucose-stimulated insulin secretion, 16.7 mM glucose + 10 nM peptide) (ng/islet/hour) amounted to 5.4.
